Test results published in US12410253B2, “Compositions comprising anti-NRP2 antibodies” (aTyr Pharma, Inc., priority 2019, dated 2025).
Where a chain is given by its changes, count along the chain named. Entries after “also recorded” stand apart in the source; their conditions may differ.

B1: Sema3F: Semaphorin 3F, NRP2 ligand used to reduce phospho-Akt levels (protein)
chain: SFPTQDHLPATPRVRLSFKELKATGTAHFFNFLLNTTDYRILLKDEDHDRMYVGSKDYVLSLDLHDINREPLIIHWAASPQRIEECVLSGKDVNGECGNFVRLIQPWNRTHLYVCGTGAYNPMCTYVNRGRRAQATPWTQTQAVRGRGSRATDGALRPMPTAPRQDYIFYLEPERLESGKGKCPYDPKLDTASALINEELYAGVYIDFMGTDAAIFRTLGKQTAMRTDQYNSRWLNDPSFIHAELIPDSAERNDDKLYFFFRERSAEAPQSPAVYARIGRICLNDDGGHCCLVNKWSTFLKARLVCSVPGEDGIETHFDELQDVFVQQTQDVRNPVIYAVFTSSGSVFRGSAVCVYSMADIRMVFNGPFAHKEGPNYQWMPFSGKMPYPRPGTCPGGTFTPSMKSTKDYPDEVINFMRSHPLMYQAVYPLQRRPLVVRTGAPYRLTTIAVDQVDAADGRYEVLFLGTDRGTVQKVIVLPKDDQELEELMLEEVEVFKDPAPVKTMTISSKRQQLYVASAVGVTHLSLHRCQAYGAACADCCLARDPYCAWDGQACSRYTASSKRASRAQDVRHGNPIRQCRGFNSNANKNAVESVQYGVAGSAAFLECQPRSPQATVKWLFQRDPGDRRREIRAEDRFLRTEQGLLLRALQLSDRGLYSCTATENNFKHVVTRVQLHVLGRDAVHAALFPPLSMSAPPPPGAGPPTPPYQELAQLLAQPEVGLIHQYCQGYWRHVPPSPREAPGAPRSPEPQDQKKPRNRR
B2: aNRP2-2v4: humanized, affinity matured anti-NRP2 antibody, target domain c; VH SEQ ID NO: 45, VL SEQ ID NO: 46 (antibody, V domains shown)
VH: QVQLVQSGAEVKKPGASVKVSCKASGYTFTSYWMHWVRQAPGQGLEWMGVIHPNSASTFYNERFKTRATMTVDRSSSTAYMELSSLRSEDTAVYYCSRPGTVRRSDYWGQGTTVTVSS
VL: DVVMTQSPLSLPVTLGQPASISCRSSQNIVHSTGNTYLEWYQQRPGQSPRLLIYKVSNRFSGVPDRFSGSGSGTDFTLKISRVEAEDVGVYYCFQGSHVPWTFGGGTKVEIK
modifications: Variable heavy chain region; Light chain variable region
B3: aNRP2-14v10: humanized, affinity matured anti-NRP2 antibody, target domain a2, semaphorin blocking; VH SEQ ID NO: 55, VL SEQ ID NO: 56 (antibody, V domains shown)
VH: QLQLVESGGGVVQPGRSLRLSCTVSGFSLTSYGVHWVRQAPGKGLEWVGLIWSGGSTDYSPAFISRFTISEDNSKSTVYLQMNSLRAEDTAVYFCARNSYSSGYYAMDYWGQGTTVTVSS
VL: DIQLTQSPSFLSASVGDRVTITCKASQNVGTAVAWYQQKPGKAPKLLIYSASNRYTGVPSRFSGSGSGTEFTLTISSLQPEDFATYYCQQRSRYPPYTFGGGTKVEIK
modifications: Variable heavy chain region; Light chain variable region
B4: aNRP2-1v3: humanized, affinity matured anti-NRP2 antibody, target domain b2; VH SEQ ID NO: 43, VL SEQ ID NO: 44 (antibody, V domains shown)
VH: QVQLVQSGAEVKKPGASVKVSCKASGYTFTSYWMHWVRQAPGQGLEWMGAIYPGNSDTSYNQQFKGRVTMTRDTSTSTVYMELSSLRSEDTAVYYCARRGGGYFDYWGQGTLVTVSS
VL: B3 VL with T31A, R91Y, R93S, P96L, Y97L
modifications: Variable heavy chain region; Light chain variable region
B5: aNRP2-10v13: humanized, affinity matured anti-NRP2 antibody, target domain b1; VH SEQ ID NO: 69, VL SEQ ID NO: 70 (antibody, V domains shown)
VH: EVQLVQSGAEVKKPGATVKISCKVSGFNIKDYYVHWVQQAPGKGLEWMGRIDVHDDETKYAPKFQGRVTITADTSTDTAYMELSSLRSEDTAVYYCATPIYGAREAWFAYWGQGTLVTVSS
VL: DIQMTQSPSSLSASVGDRVTITCTASSSVSSSYLHWYQQKPGKAPKLLIYRTSNLASGVPSRFSGSGSGTDFTLTISSLQPEDFATYYCHQYYRSPPTFGGGTKVEIK
modifications: Variable heavy chain region; Light chain variable region
B6: aNRP2-10v5: humanized, affinity matured anti-NRP2 antibody, target domain b1; VH SEQ ID NO: 47, VL SEQ ID NO: 48 (antibody, V domains shown)
VH: B5 VH with V34I, H54E, A103S
VL: B5 VL
modifications: Variable heavy chain region; Light chain variable region

Legend:
[1] = system: phospho-Akt levels in U251 glioblastoma cells; experiment: Semaphorin 3F mediated inhibition of AKT phosphorylation in U251 cells; type: cell-based
Method: As shown schematically in FIG. 17, the treatment of cells with Sema3F should specifically block PI3K activity via NRP2 mediated interaction with plexin A1, thereby resulting in reduced phospho-Akt levels. To directly test the ability of the anti-NRP2 antibodies to block this effect, lysates were prepared following standard protocols (MesoScale Discovery, Phospho (Ser473)/Total Akt Assay Whole Cell Lysate Kit #K15100D). Serum starved and confluent U251 cells (Sigma, Cat. 09063001) were treated with 10 nM rapamycin (Sigma, Cat. 553211, 30 minutes), and blocking antibodies or controls were added (10 μg/mL, 30 minutes), followed by 25 nM Sema3F or serum free media for 1 hour in triplicate. Lysate protein concentrations were determined by BCA assay and samples were equalized to 0.4 mg/mL. Phospho and Total AKT were measured following the manufacturer's instructions and percent phosphorylation was calculated by dividing phosphorylated AKT relative units by total AKT relative units. Blocking of Sema3F for each antibody or control was determined by comparing percent phosphorylation of Sema3F treated cells to percent phosphorylation of non-Sema3F treated cells.

[2] = molecular target: T1, Human NRP2 (aa23-855) (Homo sapiens, UniProt O60462); experiment: SPR binding affinity of anti-NRP2 antibodies to human NRP2 antigen; details: KD = kd/ka, Langmuir (1:1) model
T1 construct: Human NRP2 (aa23-855)
T1 sequence (O60462 23-855 isoform O60462-3): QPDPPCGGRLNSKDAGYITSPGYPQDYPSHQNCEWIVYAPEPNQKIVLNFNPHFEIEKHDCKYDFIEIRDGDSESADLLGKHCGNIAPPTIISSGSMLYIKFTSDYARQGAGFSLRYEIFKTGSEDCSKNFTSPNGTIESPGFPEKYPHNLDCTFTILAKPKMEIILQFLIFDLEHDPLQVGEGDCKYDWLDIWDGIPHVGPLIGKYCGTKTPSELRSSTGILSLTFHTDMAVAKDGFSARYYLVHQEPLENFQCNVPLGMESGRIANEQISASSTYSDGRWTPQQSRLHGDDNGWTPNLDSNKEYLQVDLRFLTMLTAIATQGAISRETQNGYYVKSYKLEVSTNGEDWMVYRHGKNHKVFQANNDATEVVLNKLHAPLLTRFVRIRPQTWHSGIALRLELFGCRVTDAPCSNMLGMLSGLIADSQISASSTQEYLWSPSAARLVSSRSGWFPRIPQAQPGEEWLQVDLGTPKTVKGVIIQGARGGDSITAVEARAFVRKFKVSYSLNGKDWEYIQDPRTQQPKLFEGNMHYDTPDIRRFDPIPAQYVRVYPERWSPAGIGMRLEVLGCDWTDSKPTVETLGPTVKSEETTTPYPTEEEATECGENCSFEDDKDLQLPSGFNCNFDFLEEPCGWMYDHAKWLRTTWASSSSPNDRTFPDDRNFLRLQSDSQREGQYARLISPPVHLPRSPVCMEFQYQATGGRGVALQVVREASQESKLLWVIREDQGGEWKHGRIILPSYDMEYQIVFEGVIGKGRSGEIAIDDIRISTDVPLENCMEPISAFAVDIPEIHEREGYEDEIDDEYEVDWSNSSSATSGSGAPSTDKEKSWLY
Method: Anti-NRP2 antibody binding and affinity measurements. […] SPR experiments were conducted on a Bio-Rad ProteOn XPR36 Protein Interaction Array instrument. Biotinylated anti-human antibody (ThermoFisher Cat #7103302100) was immobilized on ProteOn NLC sensor chips. Anti-NRP2 antibodies were subsequently flowed over and captured by the anti-human antibody. Human NRP2 antigen protein was flowed over the captured antibody at varying concentrations (150, 50, 16.67, 5.56, 1.85 nM). The sensor chip surface was regenerated between each analyte run to remove anti-NRP2 antibodies and NRP2 protein. Data was double referenced against a surface with no anti-NRP2 antibody captured (immobilized anti-human antibody only) and a buffer only blank. Affinity constants were derived by globally fitting sensograms to a Langmuir (1:1) interaction model in the ProteOn manager software. For each anti-NRP2 antibody, data from the multiple NRP2 concentrations was fit as a single data set with dissociation rate constant (kd), association rate constant (ka) and Rmax values as global parameters. The reported binding affinity is the equilibrium dissociation constant (KD) calculated from kd/ka. • Running buffer: 50 mM HEPES, 300 mM NaCl, 5 mM CaCl2), 0.005% Tween-20, pH 7.4 • Immobilized antibody: CaptureSelect Human Fab-kappa Kinetics Biotin Conjugate, ThermoFisher Cat #7103302100 • Antigen: Human NRP2 (aa23-855) with C-terminal Avi-, Myc- and His-tags • Regeneration buffer: 10 mM glycine pH 2.0

Row | Molecule | decrease in intracellular phospho-Akt levels ([1]; 25 nM Sema3F, 1 hour) | Kd [2] [nM] | blocking of the Sema3F induced decrease in intracellular phospho-Akt levels ([1]; antibody 10 μg/mL, 25 nM Sema3F 1 hour)
1 | B1 | approximately 50% | – | –
2 | B2 | – | 2.7 | –
3 | B3 | – | 0.17 | blocked the reduction in phospho-Akt levels; also recorded: block semaphorin 3F mediated inhibition of AKT phosphorylation; also recorded: can be blocked
4 | B4 | – | 17 | –
5 | B5 | – | 0.358 | –
6 | B6 | – | 0.2 | –
